In data set [1] the target is T1, MBP-dPPR-nad7-DYW (synthetic construct (13 P-type PPR …)).
T1 chain: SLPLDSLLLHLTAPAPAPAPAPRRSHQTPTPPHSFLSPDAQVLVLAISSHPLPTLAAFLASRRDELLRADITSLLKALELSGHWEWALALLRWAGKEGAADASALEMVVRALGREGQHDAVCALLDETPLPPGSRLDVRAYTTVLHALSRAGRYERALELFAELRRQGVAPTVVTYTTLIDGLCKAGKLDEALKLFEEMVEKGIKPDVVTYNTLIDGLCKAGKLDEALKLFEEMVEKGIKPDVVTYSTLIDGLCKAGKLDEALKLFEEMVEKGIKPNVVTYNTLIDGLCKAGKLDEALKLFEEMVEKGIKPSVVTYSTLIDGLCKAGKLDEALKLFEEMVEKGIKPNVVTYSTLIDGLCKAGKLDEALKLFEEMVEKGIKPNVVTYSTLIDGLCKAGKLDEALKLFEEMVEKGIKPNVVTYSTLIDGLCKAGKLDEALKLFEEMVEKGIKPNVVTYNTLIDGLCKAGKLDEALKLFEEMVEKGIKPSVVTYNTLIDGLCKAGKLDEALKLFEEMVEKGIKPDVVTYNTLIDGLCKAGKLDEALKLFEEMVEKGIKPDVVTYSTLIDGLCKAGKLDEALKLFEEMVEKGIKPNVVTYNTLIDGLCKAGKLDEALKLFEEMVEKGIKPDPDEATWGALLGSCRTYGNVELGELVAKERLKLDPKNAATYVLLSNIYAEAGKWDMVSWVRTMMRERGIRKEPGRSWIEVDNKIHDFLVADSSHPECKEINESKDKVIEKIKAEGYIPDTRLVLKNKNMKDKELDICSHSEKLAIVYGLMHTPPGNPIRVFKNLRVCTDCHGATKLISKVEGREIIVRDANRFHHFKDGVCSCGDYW
Put plainly: EMSA.

The target in data set [2] is T2, MBP-dPPR-nad7-Δ (synthetic construct (13 P-type PPR …)).
T2 chain: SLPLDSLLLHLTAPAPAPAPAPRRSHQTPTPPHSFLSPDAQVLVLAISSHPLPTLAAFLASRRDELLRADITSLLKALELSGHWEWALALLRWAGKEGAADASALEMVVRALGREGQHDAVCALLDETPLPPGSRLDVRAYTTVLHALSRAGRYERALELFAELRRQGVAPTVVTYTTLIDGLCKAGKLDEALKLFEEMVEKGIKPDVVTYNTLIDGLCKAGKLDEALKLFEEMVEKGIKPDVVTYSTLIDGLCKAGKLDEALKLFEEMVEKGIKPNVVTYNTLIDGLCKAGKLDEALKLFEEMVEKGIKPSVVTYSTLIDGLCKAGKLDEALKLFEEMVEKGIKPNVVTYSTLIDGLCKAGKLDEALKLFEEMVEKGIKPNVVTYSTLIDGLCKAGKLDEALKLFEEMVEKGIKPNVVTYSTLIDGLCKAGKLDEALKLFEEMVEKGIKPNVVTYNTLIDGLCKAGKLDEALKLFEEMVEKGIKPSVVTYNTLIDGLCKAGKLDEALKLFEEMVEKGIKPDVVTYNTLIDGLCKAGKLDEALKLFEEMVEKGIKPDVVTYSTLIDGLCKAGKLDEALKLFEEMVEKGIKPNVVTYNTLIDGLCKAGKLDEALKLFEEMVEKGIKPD
Put plainly: EMSA. On the technique in general: In EMSA bound probe runs differently from free probe, usually more slowly.

B1: nad7 control (ssRNA)
RNA: CUUUUGAAUUGCGAGGUACCAUUACGAG
For B1, the binding result in data set [1] and in data set [2] was “no binding” each time.

(Values after publication PMC11803495.)
